Assay results published in paper PMC11390915, “Histones and histone variant families in prokaryotes” (Nature Communications, 2024).

Target: the molecule itself
Experiment: crystal structure; HTkC at 4.0 mg/mL in 50 mM Tris-HCl pH 7.0, 100 mM KCl, 10% glycerol; sitting drop vapor diffusion, reservoir 0.01 M trisodium citrate, 33% (w/v) PEG 6000; space group P2(1)2(1)2(1), 1.84 Å; four monomers in the asymmetric unit

B1: face-to-face (FtF) histone from Thermococcus kodakarensis (HTkC) (natural protein)
chain: MAEMLVKSKVKEFVKSVDPEMRVSPEFYDALEAEVKALVEKAIKRAQAEGRKTLYARHV
notes: Face-to-face (FtF) histone HTkC of Thermococcus kodakarensis, product of gene TK1040; synthesized gene cloned into pET30b (plasmid pRD503); The purification used heat, heparin and SEC only, so the protein is probably untagged (surmised); Oligonucleotides for cloning are in the Supplementary Information; also called FtF histone HTkC; TK1040; source: E. coli BL21(DE3)pLysS, purified (heating at 70 …)
stoichiometry N: 4
